The target of this assay is endogenous LRBA of mouse embryonic fibroblasts (mouse (endogenous in MEFs)) (UniProt Q9ESE1). As to the kind of experiment: SEC. Background: SEC sorts molecules by how far they enter the pores of the column.

These results are taken from publication doi:10.1101/2025.11.17.688803.

As usually defined, the stoichiometry N is a count of units in the complex or per binding partner. On to “endogenous LRBA of mouse embryonic fibroblasts (from UniProt Q9ESE1 1-2856) (natural protein)”, for which the stoichiometry N was determined as 2.
